Data published in US20100092465A1, “TREATMENT OF GRAFT-VERSUS-HOST DISEASE” (priority 2006, published 2010).
“And” between values parts separate entries of the source, which are not always exact repeats. Equal values may be shown once.

Assays:
huIL-27 [1] = molecular target: T1, huIL-27 (Homo sapiens, UniProt Q14213+Q8NEV9); assay: Phospho-STAT3 neutralization assay, mouse spleens, huIL-27; assay type: cell-based; settings: Mouse Spleens; ligand huIL-27 at EC90
T1 sequence (Q14213 21-229): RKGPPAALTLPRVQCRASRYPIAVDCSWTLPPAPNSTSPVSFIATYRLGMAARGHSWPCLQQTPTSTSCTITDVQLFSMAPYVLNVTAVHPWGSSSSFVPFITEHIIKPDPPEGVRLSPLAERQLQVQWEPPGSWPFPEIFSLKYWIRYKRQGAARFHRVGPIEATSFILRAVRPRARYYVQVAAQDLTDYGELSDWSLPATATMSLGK
T1 sequence (Q8NEV9 29-243): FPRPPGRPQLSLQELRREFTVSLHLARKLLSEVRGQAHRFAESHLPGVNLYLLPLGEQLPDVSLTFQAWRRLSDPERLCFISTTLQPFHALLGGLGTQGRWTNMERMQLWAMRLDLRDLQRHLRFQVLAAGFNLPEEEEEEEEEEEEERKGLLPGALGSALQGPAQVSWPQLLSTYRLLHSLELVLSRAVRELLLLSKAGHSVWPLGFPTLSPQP
Description: (§1) Whole mouse spleens were harvested from C57 B1/6 mice and washed two times with 1×PBS before being plated out at 2×10^5 cells/well in assay media (RPMI 1640 plus 10% fetal bovine serum) in 96-well, round-bottom tissue culture plates. Total human PBMC (peripheral blood mononuclear cells) were thawed from a frozen vial collected from a leukapherisis donation and washed two times with 1×PBS before being plated out at 10^6 cells/well in assay media in 96-well, round-bottom tissue culture plates. […] Following pre-incubation, treatments were added to the plates containing the cells and incubated together at 37° C. for 15 minutes.
(§2) Following incubation, cells were washed with ice-cold wash buffer (BIO-PLEX Cell Lysis Kit, BIO-RAD Laboratories, Hercules, Calif.) and put on ice to stop the reaction according to manufacturer's instructions. […]
(§3) Capture beads (BIO-PLEX Phospho-Stat3 Assay, BIO-RAD Laboratories) were combined with 50 μL of 1:1 diluted lysates and added to a 96-well filter plate according to manufacture's instructions (BIO-PLEX Phosphoprotein Detection Kit, BIO-RAD Laboratories). […] After the final wash, beads were resuspended in 125 μL/well of bead suspension buffer, shaken for 30 seconds, and read on an array reader (BIO-PLEX, BIO-RAD Laboratories) according to the manufacture's instructions. Data were analyzed using analytical softward (BIO-PLEX MANAGER 3.0, BIO-RAD Laboratories). […]

mouse IL-27 = molecular target: T2, mouse IL-27 (Mus musculus, UniProt O35228+Q8K3I6); assay: IL-27 inhibition of IL-2 production neutralized by IL-27RA Fc; assay type: cell-based
T2 sequence (O35228+Q8K3I6 with tags, fused parts or gaps): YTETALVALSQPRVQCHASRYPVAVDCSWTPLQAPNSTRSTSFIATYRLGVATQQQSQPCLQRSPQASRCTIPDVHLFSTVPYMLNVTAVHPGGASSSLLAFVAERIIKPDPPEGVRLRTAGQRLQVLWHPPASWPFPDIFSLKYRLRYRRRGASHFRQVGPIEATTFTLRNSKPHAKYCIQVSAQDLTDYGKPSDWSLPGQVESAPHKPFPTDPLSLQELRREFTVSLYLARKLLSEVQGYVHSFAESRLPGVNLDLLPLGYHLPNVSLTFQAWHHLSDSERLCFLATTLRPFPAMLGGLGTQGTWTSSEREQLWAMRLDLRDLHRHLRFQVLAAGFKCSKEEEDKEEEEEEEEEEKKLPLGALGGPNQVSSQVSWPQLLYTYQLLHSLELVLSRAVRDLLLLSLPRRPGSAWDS
Method: For testing of the soluble receptor, single-chain mouse IL-27 (10 ng/ml) was preincubated for 30 minutes at 37 degrees C. with either IL27RAm(mFc1) (10.0 and 5.0 .micro.g/ml), IL27RA-Fc5, mouse Fc1 protein (10.0 and 5.0 .micro.g/ml), human Fc5 protein (10.0 and 5.0 .micro.g/ml), or no recombinant protein in wells of the anti-CD3 coated plates. 4×10^5 CD4^+ CD62L high cells were added to the wells. Duplicate plates were set up for all experimental conditions. The plates were then cultured at 37 degrees for up to 72 hours. Cell supernatants were collected from one set of plates at 48 hours and from the duplicate set of plates at 72 hours. The supernatants were stored frozen at −80° C.

muIL-27 [2] = molecular target: T3, muIL-27 (Mus musculus, UniProt O35228+Q8K3I6); assay: Phospho-STAT3 neutralization assay, mouse spleens, muIL-27; assay type: cell-based; settings: ligand muIL-27 at EC90
T3 sequence (O35228 19-228): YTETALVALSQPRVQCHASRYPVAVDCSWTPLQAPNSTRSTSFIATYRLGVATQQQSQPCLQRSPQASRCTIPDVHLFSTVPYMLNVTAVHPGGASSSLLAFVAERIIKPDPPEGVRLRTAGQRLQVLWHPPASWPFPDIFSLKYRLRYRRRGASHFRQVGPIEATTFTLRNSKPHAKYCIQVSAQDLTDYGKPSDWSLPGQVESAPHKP
T3 sequence (Q8K3I6 29-234): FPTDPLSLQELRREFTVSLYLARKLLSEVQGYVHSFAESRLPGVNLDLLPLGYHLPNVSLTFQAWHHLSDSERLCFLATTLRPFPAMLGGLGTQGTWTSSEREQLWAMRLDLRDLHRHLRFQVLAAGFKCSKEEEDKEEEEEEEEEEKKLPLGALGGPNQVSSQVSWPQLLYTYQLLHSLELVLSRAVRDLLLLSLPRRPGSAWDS
Description: as §1, §2, §3

muIL-27 [3] = molecular target: T3, muIL-27; assay: Phospho-STAT3 neutralization assay, total human PBMCs, muIL-27; assay type: cell-based; settings: ligand muIL-27 at EC90
Description: as §1, §2, §3

[4] = Pharmacokinetics of soluble receptors in female C57B1/6 mice; assay type: in vivo, mouse; settings: for clearance from the circulation, comparison in words: mouse Fc1 fusion versus human Fc5 fusion
Method: Studies were performed to evaluate the pharmacokinetics of the mouse (IL-27RAm(mFc1)) and human (IL-27RA-Fc5) soluble receptors in female C57B1/6 mice.
Serum was generated from each sample and analyzed by a qualified enzyme-linked immunosorbant assay (ELISA). The resulting mean serum concentration versus time profiles were then subjected to noncompartmental pharmacokinetic analyses. The following pharmacokinetic parameters were calculated: C0 and Cmax (extrapolated concentration at time zero and maximum serum concentration, respectively), Tmax (time to achieve maximum concentration), t1/2 λz (terminal half-life), AUC0-t (area under the concentration versus time curve from time zero to the last measurable time point), AUCINF (area under the concentration versus time curve extrapolated to infinity), Cl or Cl/F (clearance or clearance divided by bioavailable fraction, respectively), VSS or VZ/F (steady state volume of distribution or volume of distribution divided by the bioavailable fraction, respectively), and F (bioavailable fraction).

[5] = molecular target: T4, mouse ligand (single-chain IL27) (Mus musculus, UniProt O35228+Q8K3I6); assay: SPR kinetics of soluble receptors with mouse IL27 ligand; settings: binding with mouse ligand; gp130 not included
T4 construct: amino-terminal peptide tag (FLAG in lot A1426F) (N)
T4 sequence (O35228+Q8K3I6 with tags, fused parts or gaps): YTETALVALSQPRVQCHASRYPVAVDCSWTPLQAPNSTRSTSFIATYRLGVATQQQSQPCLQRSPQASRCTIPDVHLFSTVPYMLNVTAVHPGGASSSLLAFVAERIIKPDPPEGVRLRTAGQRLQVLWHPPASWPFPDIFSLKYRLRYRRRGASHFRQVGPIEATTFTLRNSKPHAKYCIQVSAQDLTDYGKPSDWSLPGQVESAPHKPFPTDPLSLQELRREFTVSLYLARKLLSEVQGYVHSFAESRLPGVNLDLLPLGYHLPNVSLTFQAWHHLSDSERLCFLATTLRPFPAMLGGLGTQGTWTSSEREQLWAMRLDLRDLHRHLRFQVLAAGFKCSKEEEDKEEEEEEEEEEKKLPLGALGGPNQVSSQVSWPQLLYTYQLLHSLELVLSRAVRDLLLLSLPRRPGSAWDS
Method: Kinetic rate and affinity constant values for the mouse (IL27RAm(mFc1), Example 3) and human (IL27RA-Fc5, Example 4) soluble receptors were obtained by surface plasmon resonance (SPR) using an automated instrument (BIACORE 3000; Biacore International AB, Uppsala, Sweden). The mouse soluble receptor was tested against mouse ligand (lot A1418F), and the human soluble receptor was tested against both mouse (A1426F) and human (A1534F) ligands. For determination of the kinetic rate constants for the receptor-ligand interactions, the gp130 molecule was not included as part of the receptor complex.
The IL27 ligands used in this study were single-chain molecules comprising EBI3 connected by its C-terminus to the N-terminus of IL-27 p28 via a polypeptide linker. Each of the ligands included an amino-terminal peptide tag.
For the mouse IL27RA study, the soluble receptor was captured onto the chip surface by an isotype-specific anti-mouse Fc antibody (obtained from Jackson ImmunoResearch Laboratories, Inc., West Grove, Pa.) covalently immobilized to the chip (BIACORE CM5 chip) using the standard amine coupling protocol specified by the instrument manufacturer. […]
All data were assessed using software provided with the instrument (BIACORE Evaluation software v. 3.2). […]

huIL-27 [6] = molecular target: T1, huIL-27; assay: Phospho-STAT3 neutralization assay, total human PBMCs, huIL-27; assay type: cell-based; settings: Total Human PBMCs; ligand huIL-27 at EC90
Description: as §1, §2, §3

IC50 (huIL-27 [1]): 9.3 nM
IL-2 concentration (mouse IL-27; 48 hr, protein conc. 5 (µg/ml; Fc controls in molar equiv.) + IL-27 10 ng/ml): 4021.15 pg/mL
IL-2 concentration (mouse IL-27; 48 hr, protein conc. 10 (µg/ml; Fc controls in molar equiv.) + IL-27 10 ng/ml, listed as mIL-27RA): 5215.59 pg/mL and 4922.26 pg/mL
IL-2 concentration (mouse IL-27; 72 hr, protein conc. 5 (µg/ml; Fc controls in molar equiv.) + IL-27 10 ng/ml): 5744.95 pg/mL
IL-2 concentration (mouse IL-27; 72 hr, protein conc. 10 (µg/ml; Fc controls in molar equiv.) + IL-27 10 ng/ml, listed as mIL-27RA): 6704.62 pg/mL and 12186.7 pg/mL
inhibition (partial block) of the ability of mouse IL-27 to inhibit IL-2 production (mouse IL-27; naïve CD4 T cells): ~50%
IC50 (muIL-27 [2]): 0.18 nM
IC50 (muIL-27 [3]): 4.83 nM
ka [5]: 1e+07 M⁻¹ s⁻¹
kd [5]: 0.0012 s⁻¹
IC50 (huIL-27 [6]): 1370 nM
B1: IL-27RAm(mFc1): fusion protein comprising the extracellular domain of mouse IL27RA and a wild type BALB/c mouse gamma2a constant region Fc tag (protein)
chain: TRPHGSPGPLQCYSVGPLGILNCSWEPLGDLETPPVLYHQSQKYHPNRVWEVKVPSKQSWVTIPREQFTMADKLLIWGTQKGRPLWSSVSVNLETQMKPDTPQIFSQVDISEEATLEATVQWAPPVWPPQKVLICQFRYKECQAETWTRLEPQLKTDGLTPVEMQNLEPGTCYQVSGRCQVENGYPWGEWSSPLSFQTPFLDPEDVWVSGTVCETSGKRAALLVWKDPRPCVQVTYTVWFGAGDITTTQEEVPCCKSPVPAWMEWAVVSPGNSTSWVPPTNLSLVCLAPESAPCDVGVSSADGSPGIKVTWKQGTRKPLEYVVDWAQDGDSLDKLNWTRLPPGNLSTLLPGEFKGGVPYRITVTAVYSGGLAAAPSVWGFREELVPLAGPAVWRLPDDPPGTPVVAWGEVPRHQLRGQATHYTFCIQSRGLSTVCRNVSSQTQTATLPNLHLGSFKLWVTVSTVAGQGPPGPNLSLHLPDNRIRWK
AUC0-24 ([4]; IP, 100 μg): 98.2 µg·h/mL
AUCINF ([4]; IP, 100 μg): 102 µg·h/mL
Cl/F ([4]; IP, 100 μg): 0.983 mL/h
Tmax ([4]; IP, 100 μg): 1 h
t1/2 λz ([4]; IP, 100 μg): 5.17 h
Cmax ([4]; IP, 100 μg, serum): 13200 ng/mL
AUC0-24 ([4]; IV, 100 μg): 157 µg·h/mL
AUCINF ([4]; IV, 100 μg): 162 µg·h/mL
Cl ([4]; IV, 100 μg): 0.618 mL/h
Vss ([4]; IV, 100 μg): 3.05 mL
t1/2 λz ([4]; IV, 100 μg): 5.25 h
Co ([4]; IV, 100 μg, serum): 36.2 µg/mL
AUC0-24 ([4]; SC, 100 μg): 56.5 µg·h/mL
Tmax ([4]; SC, 100 μg): 3 h
Cmax ([4]; SC, 100 μg, serum): 7950 ng/mL
clearance from the circulation, comparison in words [4]: more rapid clearance
clearance from the circulation, comparison in words ([4]; listed as Zcytor1 fragment polypeptide joined to a wild-type murine immunoglobulin gamma2a): rapidly cleared from the circulation
